± gives the uncertainty stated by the source.

B1: Probable E3 ubiquitin-protein ligase MID2, residues 191 to 235; numbered along this chain, Q9UJV3 (parent)
chain: RGITCLDHENEKVNMYCVSDDQLICALCKLVGRHRDHQVASLNDR

In this data set the parent is B1. Briefly: abundance fitness (aPCA) (normalised: wild type 0, dead -1); higher = more abundant; growth selection in yeast, the domain comes from the species named. To be noted: Homo sapiens.
Consider RGITCLDHENEKVNMYCVSDDQLICALCKLVGRKRDHQVASLNDR, for which the abundance fitness was -0.402 ± 0.11. For RGITCLDHENEKVNMYCVSDDQLICALCKLVGRLRDHQVASLNDR, the abundance fitness is -1.13 ± 0.19. As for RGITCLDHENEKVNMYCVSDDQLICALCKLVGRNRDHQVASLNDR, the figure is -0.474 ± 0.12; as for RGITCLDHENEKVNMYCVSDDQLICALCKLVGRFRDHQVASLNDR, -0.184 ± 0.16; as for RGITCLDHENEKVNMYCVSDDQLICALCKLVGRERDHQVASLNDR, -0.368 ± 0.12. The result for RGITCLDHENEKVNMYCVSDDQLICALCKLVGRYRDHQVASLNDR reads -0.634 ± 0.29. For the variant RGITCLDHENEKVNMYCVSDDQLICALCKLVGRDRDHQVASLNDR, the abundance fitness is -0.66 ± 0.13. Take RGITCLDHENEKVNMYCVSDDQLICALCKLVGRHRCHQVASLNDR: the abundance fitness is -0.278 ± 0.067. Turning to RGITCLDHENEKVNMYCVSDDQLICALCKLVGRHRRHQVASLNDR, the abundance fitness is -0.255 ± 0.061. The result for RGITCLDHENEKVNMYCVSDDQLICALCKLVGRHRTHQVASLNDR reads -0.176 ± 0.13; that for RGITCLDHENEKVNMYCVSDDQLICALCKLVGRHRAHQVASLNDR, -0.293 ± 0.085.

Consider RGITCLDHENEKVNMYCVSDDQLICALCKLVGRHRPHQVASLNDR, for which the abundance fitness is -0.311 ± 0.074. For the variant RGITCLDHENEKVNMYCVSDDQLICALCKLVGRHRLHQVASLNDR, the abundance fitness was -0.125 ± 0.06.

With RGITCLDHENEKVNMYCVSDDQLICALCKLVGRHRGHQVASLNDR, the abundance fitness was -0.098 ± 0.054. As for RGITCLDHENEKVNMYCVSDDQLICALCKLVGRHRIHQVASLNDR, the figure is -0.34 ± 0.4. With RGITCLDHENEKVNMYCVSDDQLICALCKLVGRHREHQVASLNDR, the abundance fitness is 0.036 ± 0.066. The result for RGITCLDHENEKVNMYCVSDDQLICALCKLVGRHRHHQVASLNDR reads -0.146 ± 0.28.

Take RGITCLDHENEKVNMYCVSDDQLICALCKLVGRHRVHQVASLNDR: the abundance fitness is -0.3 ± 0.07. For RGITCLDHENEKVNMYCVSDDQLICALCKLVGRHRQHQVASLNDR, the abundance fitness was -0.235 ± 0.088. Regarding RGITCLDHENEKVNMYCVSDDQLICALCKLVGRHGDHQVASLNDR, the abundance fitness was -0.002 ± 0.05. As for RGITCLDHENEKVNMYCVSDDQLICALCKLVGRHMDHQVASLNDR, the figure is -0.024 ± 0.1; as for RGITCLDHENEKVNMYCVSDDQLICALCKLVGRHVDHQVASLNDR, -0.05 ± 0.061; as for RGITCLDHENEKVNMYCVSDDQLICALCKLVGRHPDHQVASLNDR, -0.195 ± 0.069. Take RGITCLDHENEKVNMYCVSDDQLICALCKLVGRHKDHQVASLNDR: the abundance fitness was determined as 0.019 ± 0.083. Take RGITCLDHENEKVNMYCVSDDQLICALCKLVGRHDDHQVASLNDR: the abundance fitness was -0.242 ± 0.1.

In the case of RGITCLDHENEKVNMYCVSDDQLICALCKLVGRHQDHQVASLNDR, the abundance fitness is -0.11 ± 0.19. Take RGITCLDHENEKVNMYCVSDDQLICALCKLVGRHADHQVASLNDR: the abundance fitness stood at 0.064 ± 0.053.

Regarding RGITCLDHENEKVNMYCVSDDQLICALCKLVGRHFDHQVASLNDR, the abundance fitness is -0.529 ± 0.12. As for RGITCLDHENEKVNMYCVSDDQLICALCKLVGRHHDHQVASLNDR, the abundance fitness is -0.471 ± 0.32. As for RGITCLDHENEKVNMYCVSDDQLICALCKLVGRHLDHQVASLNDR, the abundance fitness was -0.321 ± 0.068. As for RGITCLDHENEKVNMYCVSDDQLICALCKLVGRHTDHQVASLNDR, the figure is -0.195 ± 0.072; as for RGITCLDHENEKVNMYCVSDDQLICALCKLVGRHCDHQVASLNDR, -0.126 ± 0.071; as for RGITCLDHENEKVNMYCVSDDQLICALCKLVGRHIDHQVASLNDR, 0.303 ± 0.22. As for RGITCLDHENEKVNMYCVSDDQLICALCKLVGRHEDHQVASLNDR, the abundance fitness is 0.09 ± 0.092. Turning to RGITCLDHENEKVNMYCVSDDQLICALCKLVGRHWDHQVASLNDR, the abundance fitness is -0.602 ± 0.093. For RGITCLDHENEKVNMYCVSDDQLICALCVLVGRHRDHQVASLNDR, the abundance fitness is -0.149 ± 0.089. RGITCLDHENEKVNMYCVSDDQLICALCYLVGRHRDHQVASLNDR: the abundance fitness was -0.079 ± 0.14. On to RGITCLDHENEKVNMYCVSDDQLICALCWLVGRHRDHQVASLNDR, for which the abundance fitness was found to be 0.018 ± 0.061. Take RGITCLDHENEKVNMYCVSDDQLICALCQLVGRHRDHQVASLNDR: the abundance fitness was -0.016 ± 0.063. On to RGITCLDHENEKVNMYCVSDDQLICALCRLVGRHRDHQVASLNDR, for which the abundance fitness was 0.07 ± 0.06.

In the case of RGITCLDHENEKVNMYCVSDDQLICALCSLVGRHRDHQVASLNDR, the abundance fitness was found to be 0.059 ± 0.06. As for RGITCLDHENEKVNMYCVSDDQLICALCKLNGRHRDHQVASLNDR, the figure is 0.184 ± 0.12. As for RGITCLDHENEKVNMYCVSDDQLICALCKLDGRHRDHQVASLNDR, the figure is -0.022 ± 0.098; as for RGITCLDHENEKVNMYCVSDDQLICALCKLPGRHRDHQVASLNDR, 0.014 ± 0.057. With RGITCLDHENEKVNMYCVSDDQLICALCKLHGRHRDHQVASLNDR, the abundance fitness is 0.108 ± 0.1. As for RGITCLDHENEKVNMYCVSDDQLICALCKLEGRHRDHQVASLNDR, the figure is 0.149 ± 0.062; as for RGITCLDHENEKVNMYCVSDDQLICALCKLGGRHRDHQVASLNDR, 0.107 ± 0.052.

In the case of RGITCLDHENEKVNMYCVSDDQLICALCKLKGRHRDHQVASLNDR, the abundance fitness was 0.131 ± 0.09. For RGITCLDHENEKVNMYCVSDDQLICALCKLQGRHRDHQVASLNDR, the abundance fitness came to 0.152 ± 0.062. Consider RGITCLDHENEKVNMYCVSDDQLICALCKLTGRHRDHQVASLNDR, for which the abundance fitness turned out to be 0.131 ± 0.086. As to RGITCLDHENEKVNMYCVSDDQLICALCKLYGRHRDHQVASLNDR, the abundance fitness is -0.117 ± 0.084. The result for RGITCLDHENEKVNMYCVSDDQLICALCKLFGRHRDHQVASLNDR reads -0.046 ± 0.17. As for RGITCLDHENEKVNMYCVSDDQLICALCKLMGRHRDHQVASLNDR, the figure is -0.104 ± 0.079; as for RGITCLDHENEKVNMYCVSDDQLICALCKLIGRHRDHQVASLNDR, -0.091 ± 0.075; as for RGITCLDHENEKVNMYCVSDDQLICALCKLWGRHRDHQVASLNDR, -0.428 ± 0.084. Consider RGITCLDHENEKVNMYCVSDDQLICALCKLLGRHRDHQVASLNDR, for which the abundance fitness is -0.122 ± 0.058. On to RGITCLDHENEKVNMYCVSDDQLICALCKLSGRHRDHQVASLNDR, for which the abundance fitness is 0.06 ± 0.05.

The record behind these values is the Human Domainome abundance scans (Beltran et al. 2025).
